# Source: the DeepSol protein solubility set
# Assay: soluble on expression in E. coli; label from the status in PepcDB or PDB records
row,Sequence,soluble on expression in E. coli
1,SLPVLAPVTKDPATSLYTIPFHDGASLVLDVAGPLVWSTCKGGQPPAEIPCSSPTCLLANAYPAPGCPAPSCGSDKHDKPCTAYPYNPVSGACAAGSLSHTRFVANTTDGSKPVSKVNVGVLAACAPSKLLASLPRGSTGVAGLANSGLALPAQVASAQKVANRFLLCLPTGGPGVAIFGGGPVPWPQFTQSMPYTPLVTKGGSPAHYISARSIVVGDTRVPVPEGALATGGVMLSTRLPYVLLRPDVYRPLMDAFTKALAAQHANGAPVARAVVAVAPFGVCYDTKTLGNNLGGYAVPNVQLGLDGGSDWTMTGKNSMVDVKQGTACVAFVEMKGVAAGDGRAPAVILGGAQMEDFVLDFDMEKKRLGFSRLPHFTGCGGL,soluble
2,SLHNGGLMAGWHLDTKMAQDIVARTMRIIDTNINVMDARGRIIGSGDRERIGELHEGALLVLSQGRVVDIDDAVARHLHGVRQGINLPLRLEGEIVGVIGLTGEPENLRKYGELVCMTAEMMLEQSRLMHLLAQDSRLREELVMNLIQAEENTPALTEWAQRLGIDLNQPRVVAIVEVDSGQLGVDSAMAELQQLQNALTTPERNNLVAIVSLTEMVVLKPALNSFGRWDAEDHRKRVEQLITRMKEYGQLRFRVSLGNYFTGPGSIARSYRTAKTTMVVGKQRMPESRCYFYQDLMLPVLLDSLRGDWQANELARPLARLKTMDNNGLLRRTLAAWFRHNVQPLATSKALFIHRNTLEYRLNRISELTGLDLGNFDDRLLLYVALQLDEER,soluble
3,MSLSHRPVINASVSPKGTLETLSQREVQQLSETANGKTYQLFRQCAPAILNTGAHSDNAKTILDAYKDFEVRIHQQDRGVRLELINAPADAFVDGEMIASTREMLFSALRDIVYTQSGLDSQHVDLDSSQGLTDYVFQLLRNARTLRPGVEPKIVVCWGGHSISSEEYKYTKRVGHELGLRSLDVCTGCGPGVMKGPMKGATISHAKQRIVGGRYLGLTEPGIIAAEAPNPIVNELVILPDIEKRLEAFVRVGHGVIIFPGGAGTAEEFLYLLGILMHPDNQDLPFPVILTGPRSAEAYLQQLHEFVGATLGHAAQRHYRIVIDDPAEVAKQMAQGLKEVKQFRRERNDAFHFNWMLKIDESFQRPFEPTHENMASLQLSRSLPPHELAANLRRAFSGIVAGNVKDNGIRMIEQYGPYEIHGDPAVMLPLDRLLQAFVKQHRMKLPGGAAYVPCYRVVQTEAAEGHHHHHH,soluble
4,MSLASLRVLALACLPLFAVLHADAKTLLGKVKRATGMGVGEGPSVAKKPKYTATVPGFTPPSGDQRMNEFMAVDTSGEFMRHLYIEEGRTVCASATSRNRRPTSESPHSDDVVVVEGMLRGRPETRVHAMFDGFQGRHSAMWLAQNVMNYLNDLRDVNEEEITRQFERMDGDLRAANLPGGSSALIIFVRYEKKPTEARVVGRQIVPEGAKEFTSVAEALGGPLMPVVAMNFRRDPRAAKGIYTIHVASLGNSRCVLKSGRTAIHLSTPHTASSHKERHRVQAAGGVFTTVNGELLLGGVVPMTRAFGSFDFKKGGQGKLQQDLVSAVPDVTTFFAYPGDDIVAGTAGAFAHFRSHAAIAAAIALYPVSPETVLDAAEGHHHHHH,soluble
5,AHHHHHHGSYKILEKKEIAMRNTWYKVYAPHVAKKVQPGQFVIVRAFPNGERIPLTPVMWDREEGWIVLIVFTRGKTTMRMAVELKEGDSLLNVAGPLGTPVPMEKFGKILAIGAYTGIVEVYPIAKAWQEIGNDVTTLHVTFEPMVILKEELEKAVTRHIVEPVPLNPNQDFLANMKNVSQRLKEKVRELLESEDWDLVFMVGPVGDQKQVFEVVKEYGVPMKVDLHPIMVDGTGMCGACRVTVGGEVKFACVDGPEFDAYQVDWDELIHRVGFYAKLEKLALEKYMEELKAKGVIMPRLIKERVPTPERSVGERVRDFGEVNLGYSWELALREAERCLQCPVEYAPCIKGCPVHINIPGFIKALRENRDNPSKAVREALRIIWRDNTLPAITGRVCPQEEQCEGACVVGKVGDPINIGKLERFVADYAREHGIDDELLLEEIKGIKRNGKKVAIIGAGPAGLTCAADLAKMGYEVTIYEALHQPGGVLTYGIPEFRLPKEILRKELKKLSLLGVEIKTDHIVGKTITIQELLQEYDAVFIGTGAGTPKLPNIPGINLNGIYSANEFLTRINLMKAYKFPEYDTPIVVGKKVVVIGAGNTAMDAARSALRLGAEVTIAYRRGREDMTARIEEVKHAEEEGVKFMFFVNPVEFIGDENGNVKAVKFEKMKPLEERDSRGKRKIVGTGEYITVEADTVIIAIGQTPNKVLWRATPELKVDEWGRIVVDENLMTSIPGVFAGGDAIRGEATVILAMGDGRKAAKAIHQYLSKKGN,soluble
6,MPMKEFPGLFLWKMWSLDKKKENMLKTHDPGISRLEPVTKTKPWREPLWERNWQGQHLDSRGYLAGPGREDGRNPLKLFVRATLQESLQFHRPDFISHIWERIKRLKLIVQERKLQSMLKSERDALFDIDRERQGHQNRMRPLPKRVFLAVQKNKPISKKEMIQRSKRTHAGGTVAQRLPGALWVKERLPGKGEKHPGIPVTSGSSTQTM,not soluble
7,GMKGISHRIAIPLILEVGNNKIYNIGQIIKKGNFKRVSLYFGEGIYELFGETIEKSIKSSNIEIEAVETVKNIDFDEIGTNAFKIPAEVDALIGIGGGKAIDAVKYMAFLRKLPFISVPTSTSNDGFSSPVASLLINGKRTSVPAKTPDGIVVDIDVIKGSPEKFIYSGIGDLVSNITALYDWKFEEENHKSIIDDFAVMISKKSVNSFVRTDFKSIKDEVFLKELVDSLTMNGIAMEIAGNSSPASGAEHLISHALDKFLPNPQLHGIQVGVATYIMSKVHKHREERIKKILSDTGFFNYVKGLNMKKSDFKRAISEAHLIKPARYTYLHVEKNCETAKEIVDTDEILRNILV,soluble
8,MTWKPNVTVAAVIEQDDKYLLVEEIPRGTAIKLNQPAGHLEPGESIIQACSREVLEETGHSFLPEVLTGIYHWTCASNGTTYLRFTFSGQVVSFDPDRKLDTGIVRAAWFSIDEIRAKQAMHRTPLVMQCIEDYHAGKRYPLDILQYYD,soluble
9,MDRTRIVRRWRRNMDVADDAEYVEMLATLSEGSVRRNFNPYTDIDWESPEFAVTDNDPRWILPATDPLGRHPWYQAQSRERQIEIGMWRQANVAKVGLHFESILIRGLMNYTFWMPNGSPEYRYCLHESVEECNHTMMFQEMVNRVGADVPGLPRRLRWVSPLVPLVAGPLPVAFFIGVLAGEEPIDHTQKNVLREGKSLHPIMERVMSIHVAEEARHISFAHEYLRKRLPRLTRMQRFWISLYFPLTMRSLCNAIVVPPKAFWEEFDIPREVKKELFFGSPESRKWLCDMFADARMLAHDTGLMNPIARLVWRLCKIDGKPSRYRSEPQRQHLAAAPAA,not soluble
10,MSLNYSNDIFEEDTFNPGNDNLFLKTASVGTGEYFILPRLCAHLAKNAPKFVLKISSLSEYLSLEYLLMSELDFAIGPGFVETGNNIIRELLFEEEAVCIMHKSHPLANQELTQDMYLQAEHVDIQFSYMGNENILYKALQGYHQRNIKVIVPNIISALEVVYHTNFITTVPRTLAVTFKDRYQIELHPFPFPKKTFLVNFYYHKRLSNHKPLQWVLDVIKKYCCVNHEGHHHHHH,not soluble
11,MGSDKIHHHHHHMITYQEQWQKMQMALAIRRIPQAMLFSGSLHCGLIEFTNQVIKLLLCKIKQNEPCLTCMDCQMIERFEHPDVEWIKPERSGGIIKIDQIRGLQSTAFLTPQRTNHKLIIIESAESMNIAASNALLKILEEPAQHTIFILLAQQIGNIPPTVLSRCQITQFAVFDELPCNNLLALGEYYTQELNSTMVFKHSESILEGLIAIIERREHPCTLAAQWIQHELSAFLWFLYLIYSQLQYMHLFRVAYSGTLTKQLNKLSSLLNPVMIFAQVDKINTLLRKLSHNMNINHTLVLEDLLFSLVVDY,not soluble
12,MKNLPIGGVWKGKVKLHSNSPAQDYFANITLNTLDPNHIDVFFPEFAHATPRVQLDLHPTGSVNGSNYAQDLTMLDMCLYDGFNGNAISYEIMLKDEGRPAAGRRDGYFSIYRQGGTTTDEGERIDYRVKMYNPETGGQIDVRNNENMVWNSINLKRVRPVVLPGIRYAVMCVPTPLTLAVDKFSVMDKQAGYYMGKLSVIFTPSLPTIN,not soluble
13,PHSPLAEGRREVAKVLTMASEALTQVSTAMRTGDVDGIREALRKARGSQAAINAMIAAAKSGQEEVAVSPFLWSSKARVRSFVRILHPVDNAMRNTRVLARRAQVLIEDGDEVSEAQIQLIDDLVSVTSAVAAIYDRRGAASEAAEIPELVRTLQTMAARAGLSVAEGKVLSAQVVLAQTRSIIVDLLQVCGMSRASAVASLALTSESPAYPSEIRDDPNH,soluble
14,IDQLNRNQLDLGMCYVDQVNTAYFDVIELDSTKLGVLFDERHFDFAESEVLWESLNNIPLGLLSKGMHYRHSIDLSFVSKGLVPQTVIESNSTFHLIQAVTSGLCCAIMPLNCGLEELNDTLRIIPIEEAAVHAPLGLLKRKQEPFSALTDQCFAEAKNIFNR,not soluble
15,MSLQPHLICLDLDGTLLNDNKEISSYTKQVLNELQQRGHQIMIATGRPYRASQMYYHELNLTTPIVNFNGAYVHHPKDKNFKTCHEILDLGIAQNIIQGLQQYQVSNIIAEVKDYVFINNHDPRLFEGFSMGNPRIQTGNLLVHLKESPTSILIEAEESKIPEIKNMLTHFYADHIEHRRWGAPFPVIEIVKLGINKARGIEQVRQFLNIDRNNIIAFGDEDNDIEMIEYARHGVAMENGLQELKDVANNITFNNNEDGIGRYLNDFFNLNIRYYEGHHHHHH,soluble
16,MVLLLRYRSLTINLTPLIPKSQKFHTLQSFRNPNFISIPKISASTNNPTTTTNRSISDATKFAKSVLFIPPGVEIEELTDDMVLPGSNIVIGPFAGHSQIKEVEFVKSSARARDCPKDDRPEIAILGRSNVGKSSLINCLVRKKEVALTSKKPGKTQLINHFLVNKSWYIVDLPGYGFAKVSDAAKTDWSAFTKGYFLNRDSLVCVLLLIDASVPPQKIDLDCANWLGRNNVPMTFVFTKCDKMKATKGKRPDENIKAFQQIIRENFKVHPPWILTSSVSGLGRDELLLHMSQLRNYWDQ,not soluble
17,MGSDKIHHHHHHMTTTEQELTLTPLRGKSGKAYKGTYPNGECVFIKLNTTPILPALAKEQIAPQLLWAKRMGNGDMMSAQEWLNGRTLTKEDMNSKQIIHILLRLHKSKKLVNQLLQLNYKIENPYDLLVDFEQNAPLQIQQNSYLQAIVKELKRSLPEFKSEVATIVHGDIKHSNWVITTSGMIFLVDWDSVRLTDRMYDVAYLLSHYIPRSRWSEWLSYYGYKNNDKVMQKIIWYGQFSHLTQILKCFDKRDMEHVNQEIYALRKFREIFRKK,not soluble
18,MGSDKIHHHHHHMKEQYKIIVLSDELSKEKIQNTLDKNKCKTIVHLVDVSAIVQIENSFQYIVIWRMDAEKITNELINRGVQSTKIINLTKYMYEWRNKLISIYQINPDLMSLYISMKKAKGDPTYELFATGLSYPHCGISTELLSKKSIKLTLPSQDLYYDYLIASQLLSNNHSFQYCLIGIAYFSFYFDMSLSSESYRIHKVYYPLFQDGHHTVVHSHLPTDGFSHLDTPKPLFSIFNMHFEYILLDELKNESLILPWIHAEWNTTPPHIPFEEHGKIRAASHAKLSYPHTLVENKTIFKKYLELLLKHDIKPLIVVFPVTSHYFNCSSKKLKEDFYNVIKDFQSQYSFQIIDLFDSPLFCDDDFYDSDHMNKKGANKMSVLLNMFIQERKV,not soluble
19,MGSDKIHHHHHHMNSHWSEYWQQGHTTSFGEALSGNYEGVLKNVWEPVFDGLTENFLVVDVGTGNGSLPLLLRDGLSKVDLTGKVIGVDLAEVTLANSVSNNNQNIDIALMSNTRCEQLPFESNSVDLYISQFGFEYSNIEQSLEEATRVLKDDGQFVIVCHHNRSMILNRNRRILTLIDKDEVNLLINCLGKMANAMGNVSNQEDVERIKKDLQCEQIRAEINDLIKLLVMFDEAAAQDCDLMRFVAQFFKAGLFWPVTKKLEFIEFITIQMDTLKLRLTELVNAAFDETKLATFIAKFHQNNMVLNELKVLKNEQNEVLGWYLHGSKFI,not soluble
